Test results reported in patent US20250277038A1 (SHANGHAI JEMINCARE PHARMACEUTICAL, published 2025).

What follows are binders tested against T1, human PD-L1 protein on HEK293 cell (human, UniProt Q9NZQ7 19-290) (assay: flow cytometry screening on HEK293-PD-L1 cells).
T1 construct: whole, on cells; also called HEK293-hPD-L1; HEK293-PD-L1
Method: Clones that specifically bind to HEK293-PD-L1 cells and can simultaneously block the binding of receptor PD-1 to HEK293-hPD-L1 cells were screened from the fusion plate by flow cytometer and subcloning was carried out by limited dilution method, and finally a monoclonal that can secrete specific antibodies was screened. Monoclonal antibodies were obtained by small-scale production and purification in serum-free medium for subsequent identification, including the detection of the binding ability of antibodies to HEK293-PD-L1, the function of blocking binding of PD-1 to HEK293-hPD-L1 cell, and the mixed lymphocyte experiment to finally obtain candidate anti-human PD-L1 monoclonal antibody 50G2-3. The sequences of the variable regions of murine hybridoma clone 50G2-3 obtained by monoclonal antibody sequencing is as follows: […]

T1 sequence (Q9NZQ7 19-290): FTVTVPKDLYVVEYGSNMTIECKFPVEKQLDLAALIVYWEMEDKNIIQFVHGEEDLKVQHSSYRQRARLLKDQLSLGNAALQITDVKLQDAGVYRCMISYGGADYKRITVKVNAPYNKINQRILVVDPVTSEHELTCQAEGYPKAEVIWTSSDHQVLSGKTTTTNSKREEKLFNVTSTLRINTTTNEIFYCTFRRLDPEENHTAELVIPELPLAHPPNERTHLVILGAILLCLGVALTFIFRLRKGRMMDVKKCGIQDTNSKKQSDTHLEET

binding result | Binder
binds | anti-human PD-L1 monoclonal antibody 50G2-3 (antibody, V domains shown, also called murine hybridoma clone 50G2-3) VH: EVQLVESGGGLVQPGRSLKLSCVASGFTFSNFWMTWIRQAPGKGLEWVASITHSGGITYYPDSVKGRFTISRDDAKSTLYLQMNSLRSEDTATYYCSRDPTEAPFDYWGQGVMVTVSS VL: DIQMTQSPPSLSASLGDQVTITCQASQNINNYIAWYQQKPGKAPRQLIRYTSTLVSGTPSRFSGSGSGKDYSFSISNVESEDIASYYCLQYDNVPNTFGAGTKLELK

These binders were tested against T2, human PD-L1 (Acro, Catalog Number: H5229) (human, UniProt Q9NZQ7 19-238) (assay: BLI, Octet RED96e, antibody on AHC sensor, antigen 100 nM, 1:1 fit).
T2 construct: Soluble antigen in the BLI assay; also called antigen
T2 sequence (Q9NZQ7 19-238 limits assumed): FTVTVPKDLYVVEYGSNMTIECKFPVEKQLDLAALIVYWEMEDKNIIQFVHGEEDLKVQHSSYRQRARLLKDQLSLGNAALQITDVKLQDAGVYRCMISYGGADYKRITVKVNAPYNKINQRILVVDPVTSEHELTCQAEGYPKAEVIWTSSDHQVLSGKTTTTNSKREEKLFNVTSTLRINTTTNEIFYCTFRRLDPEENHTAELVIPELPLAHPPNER
Method: (2) Detection of samples on machines (Octet Data Acquisition 11.1.0.11): First, the sample was added into a 96-well plate (Greiner bio-one, 655209) with a system of 200 μL/well. Then the software parameters were set, the plate temperature was set to 30° C., and the frequency of collecting standard dynamic signals was 5.0 HZ. Next, the AHC sensor (Fortébio, Catalog Number: 18-0015) was pre-wetted with 1xPBST for 10 minutes, and then the sample was detected on the instrument. Each cycle incluedes the following steps: 1) immersing in buffer for 60 seconds; 2) detecting whether the antigen nonspecifically binding to the sensor; 3) regeneration of 10 mM glycine solution with pH 1.7; 4) immersing in the buffer for 60 seconds; 5) immobilizing the antibody on the sensor for 20 seconds; 6) immersing the sensor in the buffer for 180 seconds; 7) the antigen binding to the antibody for 180 seconds; 8) dissociating the antigen from the antibody for 10 minutes; 9) regenerating the sensor.

Binder | Kd [nM] | koff [s⁻¹] | kon [M⁻¹ s⁻¹]
1910G2HzL7H7 (antibody, V domains shown, Only the variable domains are tied to the name; Full chains are not tied to the name; also called humanized antibody 1910G2HzL7H7; 1910G2HzL7 + 1910G2HzH7) VH: EVQLVESGGGLVQPGGSLRLSCAASGFTFSNFWMTWVRQAPGKGLEWVASITHSGGITYYADSVKGRFTISRDDSKSTLYLQMNSLRAEDTAVYYCSRDPTEAPFDYWGQGTLVTVSS VL: DIQMTQSPSSLSASVGDRVTITCQASQNINNYIAWYQQKPGKAPKQLIRYTSTLVSGVPSRFSGSGSGKDYTFTISSLQPEDIATYYCLQYDNVPNTFGQGTKLEIK | 0.302 | 0.000289 | 958000
1910G2HzL3H3 (antibody, V domains shown, Only the variable domains are tied to the name; Full chains are not tied to the name; also called humanized antibody 1910G2HzL3H3; 1910G2HzL3 + 1910G2HzH3) VH: EVQLVESGGGLVQPGGSLRLSCAASGFTFSNFWMSWVRQAPGKGLEWVASITHSGGITYYVDSVKGRFTISRDNAKSSLYLQMNSLRAEDTAVYYCSRDPTEAPFDYWGQGVMVTVSS VL: DIQMTQSPSSLSASVGDRVTITCQASQNINNYIAWYQQKPGKAPKQLIRYTSTLVSGTPSRFSGSGSGKDYTFTISNLQPEDIATYYCLQYDNVPNTFGQGTKLEIK | 0.452 | 0.000477 | 1.06e+06
1910G2HzL2H2 (antibody, V domains shown, Only the variable domains are tied to the name; Captured on an AHC sensor and detected with anti-human secondary antibody; also called humanized antibody 1910G2HzL2H2; 1910G2HzL2 + 1910G2HzH2) VH: EVQLVESGGGLVQPGGSLRLSCAASGFTFSNFWMTWVRQAPGKGLEWVASITHSGGITYYVDSVKGRFTISRDDAKSSLYLQMNSLRAEDTAVYYCSRDPTEAPFDYWGQGTLVTVSS VL: DIQMTQSPSSLSASVGDRVTITCQASQNINNYIAWYQQKPGKAPKQLIRYTSTLVSGVPSRFSGSGSGKDYTFTISSLQPEDIATYYCLQYDNVPNTFGQGTKLEIK | 0.243 | 0.00025 | 1.03e+06

Results, then the binder that gave them:

Kd [nM] | koff [s⁻¹] | kon [M⁻¹ s⁻¹] | Binder
0.16 | 0.000165 | 1.03e+06 | 1910G2HzL4H4 (antibody, V domains shown, Only the variable domains are tied to the name; Full chains are not tied to the name; also called humanized antibody 1910G2HzL4H4; 1910G2HzL4 + 1910G2HzH4) VH: EVQLVESGGGLVQPGGSLRLSCAASGFTFSNFWMTWVRQAPGKGLEWVASITHSGGITYYPDSVKGRFTISRDDSKNTLYLQMNSLRAEDTAVYYCSRDPTEAPFDYWGQGTLVTVSS VL: DIQMTQSPSSLSASVGDRVTITCQASQNINNYIAWYQQKPGKAPKQLIRYTSTLVSGVPSRFSGSGSGKDYTFTISSLQPEDIATYYCLQYDNVPNTFGQGTKLEIK
0.214 | 0.00021 | 980000 | 1910G2HzL9H9 (antibody, V domains shown, Only the variable domains are tied to the name; Full chains are not tied to the name; also called humanized antibody 1910G2HzL9H9; 1910G2HzL9 + 1910G2HzH9) VH: EVQLVESGGGLVQPGGSLRLSCAASGFTFSNFWMSWVRQAPGKGLEWVASITHSGGITYYADSVKGRFTISRDDSKNTLYLQMNSLRAEDTAVYYCSRDPTEAPFDYWGQGTLVTVSS VL: DIQMTQSPSSLSASVGDRVTITCQASQNINNYIAWYQQKPGKAPKQLIRYTSTLVSGVPSRFSGSGSGKDFTFTISSLQPEDIATYYCLQYDNVPNTFGQGTKLEIK
